Measured values as given in PMC7039556.

Legend:
[1] = molecular target: isolated human low-density lipoprotein (LDL) particles; assay: density gradient ultracentrifugation of PCSK9-LDL binding reactions, Western blot densitometry; conditions: conditioned cell culture medium incubated with LDL; n = 4; read off a plot
[2] = molecular target: isolated human low-density lipoprotein (LDL) particles (human (endogenous in plasma)); assay: co-sedimentation; Optiprep density gradient ultracentrifugation: 1 μg PCSK9 (concentrated conditioned medium) with 500 μg isolated human LDL in 1.0 ml HBS-C (25 mM HEPES-KOH pH 7.4, 150 mM NaCl, 2 mM CaCl2), 0.5% BSA, 37 °C 1 h; LDL fraction immunoprecipitated with anti-PCSK9 serum, PCSK9 quantified by Western blot and normalised to WT

Row | Substance | ratio to parent [1] | further results
1 | FLAG epitope-tagged recombinant human WT PCSK9 (proprotein convertase subtilisin/kexin type-9) (from UniProt Q8NBP7) Y38L | 0.92 | –
2 | human PCSK9 with the hydrophobic stretch (aa 41–45) and Arg-46 replaced by a glycine-serine linker (from UniProt Q8NBP7 31-152; Q8NBP7 153-692) (natural protein) | – | percent reduction of LDL binding against WT PCSK9 [2]: > 60%
3 | FLAG epitope-tagged recombinant human WT PCSK9 (proprotein convertase subtilisin/kexin type-9) (from UniProt Q8NBP7) Y38F | 1 | –
4 | R469W and F515L substitutions (PCSK9) | – | percent decrease of LDL binding against WT PCSK9 [2]: 60 to 70%
